Test results reported in patent publication US20050266009A1 (SAVIENT PHARMACEUTICALS, published 2005).

Tests used:
GPIb on human platelets = target: T1, GPIb on human platelets (human, UniProt P07359 17-652); experiment: FACS on human platelets
T1 construct: whole, on cells; also called GPIbα; platelet GPIb

[1] = target: T2, GPIb on guinea pig platelets (guinea pig); experiment: FACS on guinea pig platelets
T2 construct: whole, on cells; also called guinea pig derived platelets

T1 sequence (P07359 17-652): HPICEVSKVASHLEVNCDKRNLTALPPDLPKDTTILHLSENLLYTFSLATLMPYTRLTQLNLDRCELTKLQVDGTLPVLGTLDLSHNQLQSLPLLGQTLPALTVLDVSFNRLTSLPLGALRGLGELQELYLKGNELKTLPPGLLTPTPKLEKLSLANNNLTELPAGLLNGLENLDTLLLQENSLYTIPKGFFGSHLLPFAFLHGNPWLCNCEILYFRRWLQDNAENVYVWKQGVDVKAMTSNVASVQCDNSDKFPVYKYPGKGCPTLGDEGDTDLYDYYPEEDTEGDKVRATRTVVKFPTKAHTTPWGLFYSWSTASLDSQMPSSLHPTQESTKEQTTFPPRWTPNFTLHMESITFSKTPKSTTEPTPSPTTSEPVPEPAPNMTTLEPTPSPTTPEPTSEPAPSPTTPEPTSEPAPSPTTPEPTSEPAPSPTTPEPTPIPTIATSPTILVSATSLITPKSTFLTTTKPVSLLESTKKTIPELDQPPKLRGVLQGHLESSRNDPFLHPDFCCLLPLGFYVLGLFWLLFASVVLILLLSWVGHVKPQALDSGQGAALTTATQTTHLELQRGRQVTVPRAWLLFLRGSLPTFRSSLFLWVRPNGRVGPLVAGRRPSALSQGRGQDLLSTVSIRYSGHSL

Binder | fold binding capacity relative to Y1 (GPIb on human platelets) [fold] | fold binding capacity relative to Y1 [1] [fold]
S1 scFv (scFv) EVQLVESGGGVVRPGGSLRLSCAASGFTFDLNPKVKHMWVRQAPGKGLEWVSGINWNGGSTGYADSVKGRFTISRDNAKNSLYLQMNSLRAEDTAVYYCARLRPPFLWGQGTLVTVSRGGGGSGGGGSGGGGSSELTQDPAVSVALGQTVRITCQGDSLRSYYASWYQQKPGQAPVLVIYGKNNRPSGIPDRFSGSSSGNTASLTITGAQAEDEADYYCNSRDSSGNHVVFGGGTKLTVLGAAAEQKLISEEDLNGAA | ~25 | 
D1 scFv (scFv) scFv: EVQLVESGGGVVRPGGSLRLSCAASGFTFDLNPKVKHMWVRQAPGKGLEWVSGINWNGGSTGYADSVKGRFTISRDNAKNSLYLQMNSLRAEDTAVYYCARLRSPFGWGQGTLVTVSRGGGGSGGGGSGGGGSSELTQDPAVSVALGQTVRITCQGDSLRSYYASWYQQKPGQAPVLVIYGKNNRPSGIPDRFSGSSSGNTASLTITGAQAEDEADYYCNSRDSSGNHVVFGGGTKLTVLGAAAEQKLISEEDLNGAA |  | ~25
